For test [1], the target named is T1, Full-length Human PSMA (TSC435), on cells (human, UniProt Q04609 1-750).
T1 construct: also called CHOK1SV/huPSMA; PSMA on C4-2B, 22RV1, LNCaP, MDA-PCa-2b cells
Briefly: flow cytometry on C4-2B cells, PE goat anti-human IgG Fc secondary, MFI (median). Background: In flow cytometry, cells or beads pass a laser one at a time.

The target in test [2] is T2, human CD3ε in the TCR/CD3 complex on Jurkat cells (human, UniProt P07766 23-207).
T2 construct: whole, on cells; On the cells it stands in the whole TCR/CD3 complex; also called CD3 (+) cells; CD3-expressing Jurkat cells
T2 sequence (P07766 23-207, one chain of several): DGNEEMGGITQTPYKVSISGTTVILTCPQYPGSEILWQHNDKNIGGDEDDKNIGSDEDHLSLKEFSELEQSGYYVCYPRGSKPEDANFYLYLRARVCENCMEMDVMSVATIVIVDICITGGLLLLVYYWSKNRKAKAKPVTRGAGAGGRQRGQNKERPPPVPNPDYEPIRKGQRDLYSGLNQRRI
Briefly: flow cytometry on Jurkat cells, PE goat anti-human IgG Fc secondary, MFI (median).

Test [3] deals with T3, Human PSMA ECD-AFH (TSC033), recombinant dimeric PSMA ECD (human, UniProt Q04609 44-750).
T3 construct: SEC-purified dimer; also called HuPSMA-AFH; Avi-His-Human PSMA ECD
T3 sequence (Q04609 other isoform, or with tags, fused parts or gaps): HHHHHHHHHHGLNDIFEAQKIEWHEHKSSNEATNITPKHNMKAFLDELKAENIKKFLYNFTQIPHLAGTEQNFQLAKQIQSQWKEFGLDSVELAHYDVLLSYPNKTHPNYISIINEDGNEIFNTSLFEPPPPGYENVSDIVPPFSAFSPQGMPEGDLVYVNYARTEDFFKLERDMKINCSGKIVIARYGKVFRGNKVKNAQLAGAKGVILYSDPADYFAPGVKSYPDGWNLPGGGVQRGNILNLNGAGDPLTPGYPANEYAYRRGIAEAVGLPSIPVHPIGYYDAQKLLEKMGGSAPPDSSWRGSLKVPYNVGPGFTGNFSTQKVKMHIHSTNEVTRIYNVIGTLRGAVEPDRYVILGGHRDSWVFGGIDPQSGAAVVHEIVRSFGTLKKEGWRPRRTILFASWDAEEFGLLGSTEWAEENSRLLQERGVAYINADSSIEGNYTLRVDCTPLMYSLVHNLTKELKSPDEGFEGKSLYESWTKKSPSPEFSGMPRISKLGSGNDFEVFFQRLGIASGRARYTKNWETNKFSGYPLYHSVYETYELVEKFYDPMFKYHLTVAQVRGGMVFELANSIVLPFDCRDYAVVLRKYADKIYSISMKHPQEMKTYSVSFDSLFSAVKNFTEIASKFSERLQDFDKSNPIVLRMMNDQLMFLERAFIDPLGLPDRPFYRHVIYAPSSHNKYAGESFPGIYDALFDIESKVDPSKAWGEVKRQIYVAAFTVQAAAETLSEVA
The experiment in a line: SPR (Biacore T200), scFv-Fc captured on anti-human IgG, dimeric PSMA ECD as analyte, 1:1 fit. The protocol:
Mouse anti-human IgG (GE, BR-1008-39) at 25 μg/ml in 10 mM sodium acetate pH 5.0 was immobilized at a density of ˜2,000-4,000 response units (RU) onto each flow cell of a CM5 research-grade sensor chip (GE) by standard amine coupling chemistry. Each anti-PSMA protein at approximately 40 nM in dPBS with 0.2% BSA buffer was captured in a flow cell with the immobilized anti-human IgG at a flow rate of […] for up to 30 seconds, leaving one flow cell surface unmodified as the reference. Using a multi-cycle kinetics mode, a buffer blank and […] different concentrations of ECD ranging from 1 nM to 243 nM were sequentially injected through each flow cell at 30 μL/min with association times varying from 300-600 seconds and dissociation times varying from 600-1200 seconds. Regeneration was achieved by injection of 3 M MgCl₂ at a flow rate of 30 μL/min for up to 40 seconds followed by dPBS with 0.2% BSA buffer stabilization for 1 min.
Sensorgrams obtained from kinetic SPR measurements were analyzed using the double subtraction method. The signal from the reference flow cell was subtracted from the analyte binding response obtained from flow cells with captured ligands. The buffer blank response was then subtracted from analyte binding responses and the final double-referenced data were analyzed with Biacore T200 Evaluation software (2.0, GE), globally fitting data to derive kinetic parameters. All sensorgrams were fitted using a simple one-to-one binding model.
(In general: SPR reads the build-up and loss of mass on a sensor chip optically.)

The target of test [4] is T1, Full-length Human PSMA (TSC435), on …. Briefly: cell binding on CHOK1SV/humanPSMA transfectants, MSD electrochemiluminescence (ECL), SULFO-TAG goat anti-human IgG. The protocol:
(§1) To measure the relative binding activity of humanized PSMA-binding domain variants, constructs were tested in cell binding assays on CHOK1SV cells transfected with human or cynomolgus PSMA. The generation of CHOK1SV/huPSMA cells was described earlier; CHOK1SV/cynoPSMA cells were generated using the same method. Bivalent PSMA-binding domains variants in scFv-Fc format (constructs PSMA01019, PSMA01020, PSMA01021, PSMA01023, PSMA01024 and PSMA01025) were tested in these assays.
(§2) Binding studies on CHOK1SV transfectants were performed in live cell-based ELISA using electrochemiluminescence (Meso Scale Discovery). CHOK1SV cells were washed and seeded at 50,000 cells/well in 1× Hank's Balanced Salt Solution (HBSS) on 96-well Multi-Array High Bind plates (Meso Scale Discovery) and incubated at 37° C. for one hour. Following a blocking step in PBS buffer with 20% FBS, serial dilutions of PSMA-binding constructs (from 0.002 to 100 nM) were added in PBS buffer with 10% FBS and incubated at room temperature for one hour. Plates were washed with PBS and the specific binding levels were detected by SULFO TAG-labeled goat anti-human IgG antibody (Meso Scale Discovery #R32AJ). Following an hour incubation and wash steps, 150 μL/well surfactant free 1× Read Buffer T were added and samples were analyzed on MSD Sector Imager (Meso Scale Discovery). Resulting electrochemiluminescence (ECL) values versus concentrations were plotted and nonlinear regression analysis to determine EC50 values was performed in GraphPad Prism 7® graphing and statistics software.

Test [5] concerns the target T4, Full-length cynomolgus monkey PSMA (TSC308), on cells (cynomolgus monkey, UniProt Q04609 1-750 (human entry)).
T4 construct: also called cyno PSMA; CHOK1SV/cynoPSMA
T4 chain: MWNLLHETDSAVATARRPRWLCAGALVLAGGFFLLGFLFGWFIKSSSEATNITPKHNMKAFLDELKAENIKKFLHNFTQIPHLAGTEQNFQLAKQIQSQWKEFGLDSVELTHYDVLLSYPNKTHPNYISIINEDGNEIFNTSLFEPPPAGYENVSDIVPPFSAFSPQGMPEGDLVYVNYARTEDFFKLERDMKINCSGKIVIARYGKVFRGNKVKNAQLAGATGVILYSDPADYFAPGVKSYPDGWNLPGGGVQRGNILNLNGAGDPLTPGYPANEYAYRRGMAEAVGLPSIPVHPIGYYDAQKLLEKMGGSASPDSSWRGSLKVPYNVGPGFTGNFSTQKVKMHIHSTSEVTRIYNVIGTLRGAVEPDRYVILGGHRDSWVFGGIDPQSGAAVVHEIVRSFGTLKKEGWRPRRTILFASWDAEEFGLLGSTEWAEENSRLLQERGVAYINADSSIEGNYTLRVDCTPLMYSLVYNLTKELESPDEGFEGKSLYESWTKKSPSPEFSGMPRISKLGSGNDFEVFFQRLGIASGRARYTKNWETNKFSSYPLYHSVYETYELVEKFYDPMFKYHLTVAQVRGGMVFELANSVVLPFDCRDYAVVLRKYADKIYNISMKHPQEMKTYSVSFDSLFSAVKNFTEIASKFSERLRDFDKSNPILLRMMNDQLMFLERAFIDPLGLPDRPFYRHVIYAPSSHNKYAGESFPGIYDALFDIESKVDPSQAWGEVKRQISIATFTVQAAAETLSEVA
Briefly: cell binding on CHOK1SV/cynoPSMA transfectants, MSD electrochemiluminescence (ECL), SULFO-TAG goat anti-human IgG. As to the method: as §1, §2

As usually defined, the EC50 is the concentration needed to bring the measured effect to its halfway point. What is called Kd is the concentration at which binding is half-saturated. As usually defined, the koff is the first-order rate constant of dissociation. For orientation: kon means a measure of how fast the partners come together.

B1: PSMA01072 Anti PSMA scFv x Anti CD3 scFv ADAPTIR (bispecific antibody)
chain: QVQLVQSGAEVKKPGASVKVSCKASGYTFTDYYMHWVRQAPGQGLEWMGYFNPYNDYTRYAQKFQGRVTMTRDTSTSTVYMELSSLRSEDTAVYYCARSDGYYDAMDYWGQGTTVTVSSGGGGSGGGGSGGGGSGGGGSDIQMTQSPSSLSASVGDRVTITCRASKSISKYLAWYQQKPGKAPKLLIHSGSSLESGVPSRFSGSGSGTEFTLTISSLQPDDFATYYCQQHIEYPWTFGQGTKVEIKEPKSSDKTHTCPPCPAPPAAAPSVFLFPPKPKDTLMISRTPEVTCVVVDVSHEDPEVKFNWYVDGVEVHNAKTKPREEQYNSTYRVVSVLTVLHQDWLNGKEYKCAVSNKALPAPIEKTISKAKGQPREPQVYTLPPSRDELTKNQVSLTCLVKGFYPSDIAVEWESNGQPENNYKTTPPVLDSDGSFFLYSKLTVDKSRWQQGNVFSCSVMHEALHNHYTQKSLSLSPGGGGSPSQVQLVQSGAEVKKPGASVKVSCKASGYTFTRSTMHWVRQAPGQGLEWIGYINPSSAYTNYAQKFQGRVTLTADKSTSTAYMELSSLRSEDTAVYYCASPQVHYDYNGFPYWGQGTLVTVSSGGGGSGGGGSGGGGSGGGGSDIQMTQSPSSLSASVGDRVTITCRASSSVSYMNWYQQKPGKAPKRWIYDSSKLASGVPSRFSGSGSGTDFTLTISSLQPEDFATYYCQQWSRNPPTFGQGTKVEIKRS
notes: also called PSMA1072
Take B1: the EC50 in test [1] and in test [2] was 1 nM throughout.

B2: PSMA01020 Anti-PSMA scFv-Fc (Fc fusion)
chain: DIQMTQSPSTLSASVGDRVTITCRASKSISKYLAWYQQKPGKAPKLLIHSGSSLESGVPSRFSGSGSGTEFTLTISSLQPDDFATYYCQQHIEYPWTFGQGTKVEIKGGGGSGGGGSGGGGSGGGGSEVQLLESGGGLVQPGGSLRLSCAASGYTFTDYYIHWVRQAPGKGLEWIGSFNPYNDYTSYADSVKGRATLSVDKSKNTAYLQMNSLRAEDTAVYYCARSDGYYDAMDYWGQGTLVTVSSSEPKSSDKTHTCPPCPAPEAAGAPSVFLFPPKPKDTLMISRTPEVTCVVVDVSHEDPEVKFNWYVDGVEVHNAKTKPREEQYNSTYRVVSVLTVLHQDWLNGKEYKCAVSNKALPAPIEKTISKAKGQPREPQVYTLPPSRDELTKNQVSLTCLVKGFYPSDIAVEWESNGQPENNYKTTPPVLDSDGSFFLYSKLTVDKSRWQQGNVFSCSVMHEALHNHYTQKSLSLSPGK
notes: Monospecific, bivalent scFv-Fc, VL-VH
With B2, in test [3], the Kd worked out at 16 nM, the koff turned out to be 0.00019 s⁻¹ and the kon stood at 12000 M⁻¹ s⁻¹. This molecule also came in with an EC50 in test [4] of 4 nM. Further, the EC50 in test [5] is 8 nM.

B3: PSMA01026 Anti PSMA scFv-Fc; Anti CD3 scFv-Fc (bispecific antibody)
chain 1: DIQMTQSPSTLSASVGDRVTITCRASKSISKYLAWYQQKPGKAPKLLIHSGSSLESGVPSRFSGSGSGTEFTLTISSLQPDDFATYYCQQHIEYPWTFGQGTKVEIKGGGGSGGGGSGGGGSGGGGSQVQLVQSGAEVKKPGASVKVSCKASGYTFTDYYMHWVRQAPGQGLEWMGYFNPYNDYTRYAQKFQGRVTMTRDTSTSTVYMELSSLRSEDTAVYYCARSDGYYDAMDYWGQGTTVTVEPKSSDKTHTCPPCPAPPAAAPSVFLFPPKPKDTLMISRTPEVTCVVVDVSHEDPEVKFNWYVDGVEVHNAKTKPREEQYNSTYRVVSVLTVLHQDWLNGKEYKCAVSNKALPAPIEKTISKAKGQPREPQVYTLPPSRDELTKNQVSLWCLVKGFYPSDIAVEWESNGQPENNYKTTPPVLDSDGSFFLYSKLTVDKSRWQQGNVFSCSVMHEALHNHYTQKSLSLSPG
chain 2: QVQLVQSGAEVKKPGASVKVSCKASGYTFTRSTMHWVRQAPGQGLEWIGYINPSSAYTNYAQKFQGRVTLTADKSTSTAYMELSSLRSEDTAVYYCASPQVHYDYNGFPYWGQGTLVTVSSGGGGSGGGGSGGGGSGGGGSDIQMTQSPSSLSASVGDRVTITCRASSSVSYMNWYQQKPGKAPKRWIYDSSKLASGVPSRFSGSGSGTDFTLTISSLQPEDFATYYCQQWSRNPPTFGQGTKVEIKEPKSSDKTHTCPPCPAPPAAAPSVFLFPPKPKDTLMISRTPEVTCVVVDVSHEDPEVKFNWYVDGVEVHNAKTKPREEQYNSTYRVVSVLTVLHQDWLNGKEYKCAVSNKALPAPIEKTISKAKGQPREPQVYTLPPSRDELTKNQVSLSCAVKGFYPSDIAVEWESNGQPENNYKTTPPVLDSDGSFFLVSKLTVDKSRWQQGNVFSCSVMHEALHNRFTQKSLSLSPG
B3: the EC50 in test [1] came out at 23 nM; in test [2] it was 26 nM.

B4: PSMA01070 Anti PSMA scFv-Fc; Anti CD3 scFv-Fc (bispecific antibody)
chain 1: QVQLVQSGAEVKKPGASVKVSCKASGYTFTDYYMHWVRQAPGQGLEWMGYFNPYNDYTRYAQKFQGRVTMTRDTSTSTVYMELSSLRSEDTAVYYCARSDGYYDAMDYWGQGTTVTVSSGGGGSGGGGSGGGGSGGGGSDIQMTQSPSSLSASVGDRVTITCRASKSISKYLAWYQQKPGKAPKLLIHSGSSLESGVPSRFSGSGSGTEFTLTISSLQPDDFATYYCQQHIEYPWTFGQGTKVEIKEPKSSDKTHTCPPCPAPPAAAPSVFLFPPKPKDTLMISRTPEVTCVVVDVSHEDPEVKFNWYVDGVEVHNAKTKPREEQYNSTYRVVSVLTVLHQDWLNGKEYKCAVSNKALPAPIEKTISKAKGQPREPQVYTLPPSRDELTKNQVSLWCLVKGFYPSDIAVEWESNGQPENNYKTTPPVLDSDGSFFLYSKLTVDKSRWQQGNVFSCSVMHEALHNHYTQKSLSLSPG
chain 2: QVQLVQSGAEVKKPGASVKVSCKASGYTFTRSTMHWVRQAPGQGLEWIGYINPSSAYTNYAQKFQGRVTLTADKSTSTAYMELSSLRSEDTAVYYCASPQVHYDYNGFPYWGQGTLVTVSSGGGGSGGGGSGGGGSGGGGSDIQMTQSPSSLSASVGDRVTITCRASSSVSYMNWYQQKPGKAPKRWIYDSSKLASGVPSRFSGSGSGTDFTLTISSLQPEDFATYYCQQWSRNPPTFGQGTKVEIKEPKSSDKTHTCPPCPAPPAAAPSVFLFPPKPKDTLMISRTPEVTCVVVDVSHEDPEVKFNWYVDGVEVHNAKTKPREEQYNSTYRVVSVLTVLHQDWLNGKEYKCAVSNKALPAPIEKTISKAKGQPREPQVYTLPPSRDELTKNQVSLSCAVKGFYPSDIAVEWESNGQPENNYKTTPPVLDSDGSFFLVSKLTVDKSRWQQGNVFSCSVMHEALHNRFTQKSLSLSPG
On to B4, for which the EC50 in test [1] came out at 30 nM; in test [2], 52 nM.

For the origin of these results see patent publication US20240301086A1 (APTEVO RESEARCH AND DEVELOPMENT, published 2024).
